Where a chain is given by its changes, count along the chain named. Starred links: 1 amine or outer side, 2 acyl side, 3 side chain; linkers in the order of their positions; H or OH if unused. Non-standard residues stand in square brackets, D forms with d. Groups on a side chain read outwards from the residue. No end group written: not given here. *: point of attachment. C20 diacid = O=C(O)CCCCCCCCCCCCCCCCCCC(=O)*; γGlu = O=C(O)[C@H](CCC(=O)[*:2])N[*:1]; αMeF = C[C@](N)(Cc1ccccc1)C(=O)O; AEEA = NCCOCCOCC(=O)O; Ac3c = NC1(C(=O)O)CC1; Aib = CC(C)(N)C(=O)O
B1: Compound 28 (peptide)
peptide: Y[Aib]QGT[αMeF]TSDYSIXLDKK([AEEA-AEEA-γGlu-C20 diacid])AQ[Aib]AFIEFLLES[Aib]PSSGAPP[Ac3c]S-NH2
modifications: not fully specified (residue 13); printed as Y-Aib-QGT-αMeF-TSDYSI-αMeF-LDKK(AEEAc-AEEAc-γGlu-CO(CH2)18COOH)AQ-Aib-AFIEFLLES-Aib-PSSGAPP-Ac3c-S-NH2
B2: Compound 23 (peptide)
peptide: YXQGTXTSDYSIXLDKKAQXAFIEYLLETGPSSGQPPPS
modifications: Aib at 2; αMeF(2F) at 6; αMeL at 13; Lys 17 side chain AEEAc-AEEAc-γGlu-CO(CH2)18COOH; Aib at 20; C-terminal amide (NH2)
B3: Compound 35 (peptide)
peptide: B2 peptide with P38X
modifications: Aib at 2; αMeF at 6; αMeL at 13; Lys 17 side chain AEEAc-AEEAc-γGlu-CO(CH2)18COOH; Aib at 20; Ac3c at 38; C-terminal amide (NH2)
B4: Compound 36 (peptide)
peptide: B2 peptide with Y25F, T29G, G34X, Q35H
modifications: Aib at 2; αMeF at 6; αMeL at 13; Lys 17 side chain AEEAc-AEEAc-γGlu-CO(CH2)18COOH; Aib at 20; Aib at 34; C-terminal amide (NH2)
B5: Compound 38 (peptide)
peptide: B2 peptide with Y25F, G34X, Q35H
modifications: Aib at 2; αMeF(2F) at 6; αMeL at 13; Lys 17 side chain AEEAc-AEEAc-γGlu-CO(CH2)18COOH; Aib at 20; Aib at 34; C-terminal amide (NH2)
B6: Compound 34 (peptide)
peptide: B2 peptide with P38X
modifications: Aib at 2; αMeF(2F) at 6; αMeL at 13; Lys 17 side chain AEEAc-AEEAc-γGlu-CO(CH2)18COOH; Aib at 20; Ac3c at 38; C-terminal amide (NH2)
B7: Compound 1 (peptide)
peptide: B2 peptide with Q35A, P38X
modifications: Aib at 2; αMeF at 6; αMeL at 13; Lys 17 side chain AEEAc-AEEAc-γGlu-CO(CH2)18COOH; Aib at 20; Ac3c at 38; C-terminal amide (NH2)
B8: Compound 15 (peptide)
peptide: YXQGTXTSDYSIFLDKKAQXAFIEFLLESHPSSGAPPPS
modifications: Aib at 2; αMeF at 6; Lys 17 side chain AEEAc-AEEAc-γGlu-CO(CH2)18COOH; Aib at 20; C-terminal amide (NH2)
B9: Compound 32 (peptide)
peptide: B8 peptide with F25Y, S29X, P38X
modifications: Aib at 2; αMeF(2F) at 6; Lys 17 side chain AEEAc-AEEAc-γGlu-CO(CH2)18COOH; Aib at 20; Aib at 29; Ac3c at 38; C-terminal amide (NH2)
B10: Compound 17 (peptide)
peptide: B2 peptide with X13F, Q35A
modifications: Aib at 2; αMeF(2F) at 6; Lys 17 side chain AEEAc-AEEAc-γGlu-CO(CH2)18COOH; Aib at 20; C-terminal amide (NH2)
B11: Compound 20 (peptide)
peptide: B8 peptide with F13X, S29X
modifications: Aib at 2; αMeF(2F) at 6; αMeL at 13; Lys 17 side chain AEEAc-AEEAc-γGlu-CO(CH2)18COOH; Aib at 20; Aib at 29; C-terminal amide (NH2)
B12: Compound 27 (peptide)
peptide: B8 peptide with F13X, F25Y
modifications: Aib at 2; αMeF at 6; αMeF at 13; Lys 17 side chain AEEAc-AEEAc-γGlu-CO(CH2)18COOH; Aib at 20; C-terminal amide (NH2)
B13: Compound 19 (peptide)
peptide: B2 peptide with Y25F, Q35A
modifications: Aib at 2; αMeF(2F) at 6; αMeL at 13; Lys 17 side chain AEEAc-AEEAc-γGlu-CO(CH2)18COOH; Aib at 20; C-terminal amide (NH2)
B14: Compound 16 (peptide)
peptide: B8 peptide with S29X
modifications: Aib at 2; αMeF at 6; Lys 17 side chain AEEAc-AEEAc-γGlu-CO(CH2)18COOH; Aib at 20; Aib at 29; C-terminal amide (NH2)
B15: Compound 2 (peptide)
peptide: B2 peptide with G30H, Q35A, P38X
modifications: Aib at 2; αMeF at 6; αMeL at 13; Lys 17 side chain AEEAc-AEEAc-γGlu-CO(CH2)18COOH; Aib at 20; Ac3c at 38; C-terminal amide (NH2)
B16: Compound 29 (peptide)
peptide: B8 peptide with F25Y, H30X, P38X
modifications: Aib at 2; αMeF at 6; Lys 17 side chain AEEAc-AEEAc-γGlu-CO(CH2)18COOH; Aib at 20; Aib at 30; Ac3c at 38; C-terminal amide (NH2)
B17: Compound 22 (peptide)
peptide: B2 peptide with Y25F, T29G
modifications: Aib at 2; αMeF(2F) at 6; αMeL at 13; Lys 17 side chain AEEAc-AEEAc-γGlu-CO(CH2)18COOH; Aib at 20; C-terminal amide (NH2)
B18: Compound 18 (peptide)
peptide: B8 peptide with F25Y, S29X
modifications: Aib at 2; αMeF(2F) at 6; Lys 17 side chain AEEAc-AEEAc-γGlu-CO(CH2)18COOH; Aib at 20; Aib at 29; C-terminal amide (NH2)
B19: Compound 21 (peptide)
peptide: B8 peptide with S29G, H30G, A35Q
modifications: Aib at 2; αMeF(2F) at 6; Lys 17 side chain AEEAc-AEEAc-γGlu-CO(CH2)18COOH; Aib at 20; C-terminal amide (NH2)
B20: Compound 33 (peptide)
peptide: B8 peptide with F13X, G34X, A35H, P38X
modifications: Aib at 2; αMeF at 6; αMeL at 13; Lys 17 side chain AEEAc-AEEAc-γGlu-CO(CH2)18COOH; Aib at 20; Aib at 34; Ac3c at 38; C-terminal amide (NH2)
B21: Compound 30 (peptide)
peptide: B8 peptide with F13X, S29T, H30X, P38X
modifications: Aib at 2; αMeF at 6; αMeL at 13; Lys 17 side chain AEEAc-AEEAc-γGlu-CO(CH2)18COOH; Aib at 20; Aib at 30; Ac3c at 38; C-terminal amide (NH2)
B22: Compound 31 (peptide)
peptide: B8 peptide with F13X, S29X, P38X
modifications: Aib at 2; αMeF(2F) at 6; αMeL at 13; Lys 17 side chain AEEAc-AEEAc-γGlu-CO(CH2)18COOH; Aib at 20; Aib at 29; Ac3c at 38; C-terminal amide (NH2)
B23: Compound 26 (peptide)
peptide: B8 peptide with F13X
modifications: Aib at 2; αMeF at 6; αMeL at 13; Lys 17 side chain AEEAc-AEEAc-γGlu-CO(CH2)18COOH; Aib at 20; C-terminal amide (NH2)
B24: Compound 25 (peptide)
peptide: YXQGTXTSDYSIXLDKKAQXAFIEFLLEGRPSSXHPPPS
modifications: Aib at 2; αMeF(2F) at 6; αMeL at 13; Lys 17 side chain AEEAc-AEEAc-γGlu-CO(CH2)18COOH; Aib at 20; Aib at 34; C-terminal amide (NH2)

Columns and labels:
Test in all cases: cell-based or functional assay
[1] = molecular target: human GCG receptor (human, UniProt P47871 26-477)
human GCG receptor, sequence (P47871 26-477): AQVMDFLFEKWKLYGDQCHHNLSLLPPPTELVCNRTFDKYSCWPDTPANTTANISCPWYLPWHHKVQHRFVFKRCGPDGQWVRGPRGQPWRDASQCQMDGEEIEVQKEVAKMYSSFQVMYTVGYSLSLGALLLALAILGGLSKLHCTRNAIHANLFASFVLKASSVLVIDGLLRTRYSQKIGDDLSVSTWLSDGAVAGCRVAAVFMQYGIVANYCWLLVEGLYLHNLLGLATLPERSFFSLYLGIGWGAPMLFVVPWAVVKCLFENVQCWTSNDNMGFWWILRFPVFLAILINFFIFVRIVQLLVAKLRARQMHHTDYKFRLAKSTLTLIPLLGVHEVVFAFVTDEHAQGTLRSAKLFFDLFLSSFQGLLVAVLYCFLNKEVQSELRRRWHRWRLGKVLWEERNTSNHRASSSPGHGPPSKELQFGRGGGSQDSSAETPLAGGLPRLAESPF

[2] = molecular target: T1, human GIP receptor (human, UniProt P48546 22-466)
T1 sequence (looked up): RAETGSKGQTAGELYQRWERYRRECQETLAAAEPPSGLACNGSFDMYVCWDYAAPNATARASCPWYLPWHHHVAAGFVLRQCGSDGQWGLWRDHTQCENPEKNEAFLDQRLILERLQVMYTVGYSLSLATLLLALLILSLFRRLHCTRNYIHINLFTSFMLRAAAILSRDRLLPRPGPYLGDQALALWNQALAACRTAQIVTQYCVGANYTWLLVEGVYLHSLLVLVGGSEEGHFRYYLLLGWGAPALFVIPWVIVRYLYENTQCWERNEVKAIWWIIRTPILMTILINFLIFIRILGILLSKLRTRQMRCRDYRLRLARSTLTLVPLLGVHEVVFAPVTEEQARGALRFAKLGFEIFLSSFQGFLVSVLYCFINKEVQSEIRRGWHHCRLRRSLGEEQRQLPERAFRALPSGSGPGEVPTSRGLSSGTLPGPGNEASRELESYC

[3] = molecular target: human GLP-1 receptor (human, UniProt P43220 24-463)

| Binder | cAMP EC50, HEK-293 cells stably overexpressing human GCG R [1] [nM] | cAMP Rel. A (%) against human GCG, human GCG R cells [1] [%] | cAMP EC50, CHO cells stably overexpressing human GIP R [2] [nM] | cAMP Rel. A (%) against human GIP, human GIP R cells [2] [%] | cAMP EC50, HEK-293 cells stably overexpressing human GLP-1 R [3] [nM] | cAMP Rel. A (%) against human GLP-1 (7-37), human GLP-1 R cells [3] [%] |
| --- | --- | --- | --- | --- | --- | --- |
| B1 | 0.154 | 37 | 0.011 | 1650 | 0.024 | 183 |
| B2 | 0.025 | 228 | 0.007 | 2590 | 0.005 | 880 |
| B3 | 0.087 | 65.5 | 0.008 | 2260 | 0.022 | 200 |
| B4 |  | 127 |  | 2590 | 0.025 | 176 |
| B5 | 0.068 |  | 0.013 |  |  |  |
| B6 | 0.038 | 150 | 0.005 | 3620 | 0.023 | 191 |
| B7 |  | 57.6 | 0.015 | 1210 |  |  |
| B8 |  | 41 |  | 548 | 0.023 | 191 |
| B9 | 0.017 | 335 | 0.011 | 1650 | 0.014 | 314 |
| B10 |  | 163 |  | 953 | 0.011 | 400 |
| B11 |  | 248 |  | 3020 | 0.01 | 440 |
| B12 |  | 96.6 | 0.023 | 787 | 0.016 | 275 |
| B13 | 0.029 | 197 | 0.008 | 2260 | 0.009 | 489 |
| B14 |  | 33.9 |  | 335 | 0.02 | 220 |
| B15 | 0.232 | 24.6 | 0.025 | 724 | 0.026 | 169 |
| B16 | 0.069 | 82.6 | 0.309 | 58.6 | 0.016 | 275 |
| B17 | 0.017 | 335 | 0.007 | 2590 |  | 733 |
| B18 | 0.026 | 219 | 0.021 | 862 | 0.012 | 367 |
| B19 | 0.025 | 228 | 0.008 | 2260 | 0.005 | 880 |
| B20 | 0.155 | 36.8 | 0.008 | 2260 | 0.019 | 232 |
| B21 | 0.173 | 33 | 0.015 | 1210 | 0.02 | 220 |
| B22 |  | 211 |  | 2010 | 0.012 | 367 |
| B23 |  | 43.9 | 0.007 | 2590 | 0.022 | 200 |
| B24 | 0.034 | 168 | 0.013 | 1390 | 0.031 | 142 |

From US20250129135A1, “Multi-Agonist and Use Thereof” (priority 2021, published 2025)
